Laboratory results: patent US20090188010A1

Key:
Assay in all cases: cell-based or functional assay
[1] = target: chymotrypsins in unfractionated gut extracts from H. punctigera larvae
[2] = target: Bovine chymotrypsin (bovine) (UniProt P00766)
[3] = target: NaPI-insensitive chymotrypsin from H. punctigera (HpCh5), native enzyme from the larval gut (Helicoverpa punctigera)
Sequence of NaPI-insensitive chymotrypsin from H. punctigera (HpCh5), native enzyme from the larval gut (Helicoverpa punctigera) (chain, as listed by the source limits assumed): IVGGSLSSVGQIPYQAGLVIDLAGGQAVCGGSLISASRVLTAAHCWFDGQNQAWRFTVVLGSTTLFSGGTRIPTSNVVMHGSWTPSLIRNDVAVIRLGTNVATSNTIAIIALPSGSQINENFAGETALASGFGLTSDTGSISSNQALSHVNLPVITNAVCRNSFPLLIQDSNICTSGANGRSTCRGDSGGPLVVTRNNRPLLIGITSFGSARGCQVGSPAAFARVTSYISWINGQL

Sequence of soybean trypsin inhibitor (P01070 25-205): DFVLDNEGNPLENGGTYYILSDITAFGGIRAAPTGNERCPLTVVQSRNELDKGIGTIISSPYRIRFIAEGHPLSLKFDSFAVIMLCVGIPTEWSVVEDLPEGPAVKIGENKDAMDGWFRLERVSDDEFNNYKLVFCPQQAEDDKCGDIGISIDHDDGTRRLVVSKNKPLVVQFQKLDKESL
Sequence of soybean Bowman Birk inhibitor (P01055 40-110 limits assumed): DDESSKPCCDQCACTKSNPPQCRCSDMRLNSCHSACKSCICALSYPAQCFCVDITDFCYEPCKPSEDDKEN
Sequence of lima bean trypsin inhibitor (Sigma) (P01056 whole entry): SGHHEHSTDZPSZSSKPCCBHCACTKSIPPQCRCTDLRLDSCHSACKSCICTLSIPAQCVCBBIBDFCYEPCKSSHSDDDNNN

degree of inhibition of gut chymotrypsin activity of control insects, 80 nM C1 (FIG. 2F) [1] [%] | % Inhibition of chymotrypsin activity at the maximum concentration tested (5 µM) [2] [%] | IC50 of inhibition of chymotrypsin activity [2] [µM] | % Inhibition of chymotrypsin activity at the maximum concentration tested (>20 µM) [3] [%] | IC50 of inhibition of chymotrypsin activity [3] [µM] | % Inhibition of chymotrypsin activity at the maximum concentration tested (10 µM) [3] [%] | % Inhibition of chymotrypsin activity at the maximum concentration tested (>20 µM) [2] [%] | Substance
75 |  |  |  |  |  |  | C1 monomer, chymotrypsin inhibitor from the N. alata proteinase inhibitor precursor, HPLC purified
 | 100 | 0.2 | 89 | 3 |  |  | lima bean trypsin inhibitor (Sigma) (from UniProt P01056 1-83)
 | 100 | 0.06 |  | 0.24 | 100 |  | soybean Bowman Birk inhibitor (from UniProt P01055 40-110)
 |  | 13 | 82 | 33 |  | 94 | soybean trypsin inhibitor (from UniProt P01070 25-205)
